Targets include Cathepsin F (human) (UniProt Q9UBX1); Cathepsin S (human) (UniProt P25774); Cathepsin X (human) (UniProt Q9UBR2).
Test [1] addresses Bovine cathepsin C (bovine).
In test [2] the target is Bovine cathepsin H (bovine).
Test [3] addresses Carica papaya papain (Carica papaya) (UniProt P00784).
The target in test [4] is Fasciola hepatica cathepsin L1 (Fasciola hepatica).
For test [5], the target named is Fasciola hepatica cathepsin L2 (Fasciola hepatica).
Test [6] addresses Fasciola hepatica cathepsin L3 (Fasciola hepatica).
The target in test [7] is Human cathepsin K (human) (UniProt P43235).
Sequence of Human cathepsin K (human) (P43235 115-329): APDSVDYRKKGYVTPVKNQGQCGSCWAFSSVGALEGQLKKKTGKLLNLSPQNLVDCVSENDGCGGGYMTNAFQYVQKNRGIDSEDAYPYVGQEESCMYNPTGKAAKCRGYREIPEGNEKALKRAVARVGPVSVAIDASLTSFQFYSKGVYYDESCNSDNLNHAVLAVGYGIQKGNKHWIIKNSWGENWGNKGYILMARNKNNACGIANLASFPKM
In test [8] the target is Human cathepsin L (human).
In test [9] the target is Human cathepsin V (human) (UniProt O60911).
Sequence of Human cathepsin V (human) (O60911 114-334): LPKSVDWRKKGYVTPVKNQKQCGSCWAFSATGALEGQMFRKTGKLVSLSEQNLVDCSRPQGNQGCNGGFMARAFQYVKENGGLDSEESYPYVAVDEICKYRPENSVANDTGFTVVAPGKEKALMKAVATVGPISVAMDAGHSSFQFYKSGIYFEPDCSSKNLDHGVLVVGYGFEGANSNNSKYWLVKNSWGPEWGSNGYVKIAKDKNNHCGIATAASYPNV

Sequence of Cathepsin X (human) (Q9UBR2 62-303): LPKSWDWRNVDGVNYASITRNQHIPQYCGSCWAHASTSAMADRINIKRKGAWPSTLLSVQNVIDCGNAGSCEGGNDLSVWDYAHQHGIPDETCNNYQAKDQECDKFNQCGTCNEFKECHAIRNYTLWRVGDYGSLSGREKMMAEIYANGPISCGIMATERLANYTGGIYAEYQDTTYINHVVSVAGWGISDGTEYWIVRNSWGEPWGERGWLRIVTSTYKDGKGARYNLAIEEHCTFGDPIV
Sequence of Cathepsin S (human) (P25774 115-331): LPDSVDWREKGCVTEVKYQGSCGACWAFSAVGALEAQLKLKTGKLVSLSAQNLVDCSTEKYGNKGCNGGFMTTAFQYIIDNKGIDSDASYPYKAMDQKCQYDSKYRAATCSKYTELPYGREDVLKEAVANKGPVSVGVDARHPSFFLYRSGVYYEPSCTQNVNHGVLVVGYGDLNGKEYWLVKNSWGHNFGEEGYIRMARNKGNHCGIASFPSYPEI
Sequence of Cathepsin F (human) (Q9UBX1 271-484): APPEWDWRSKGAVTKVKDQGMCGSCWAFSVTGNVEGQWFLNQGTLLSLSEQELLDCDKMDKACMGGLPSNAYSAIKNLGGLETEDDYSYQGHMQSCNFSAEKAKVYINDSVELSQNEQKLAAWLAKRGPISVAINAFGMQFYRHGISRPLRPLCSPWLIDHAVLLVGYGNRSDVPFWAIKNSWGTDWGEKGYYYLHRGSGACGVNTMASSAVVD
Sequence of Carica papaya papain (Carica papaya) (P00784 134-345): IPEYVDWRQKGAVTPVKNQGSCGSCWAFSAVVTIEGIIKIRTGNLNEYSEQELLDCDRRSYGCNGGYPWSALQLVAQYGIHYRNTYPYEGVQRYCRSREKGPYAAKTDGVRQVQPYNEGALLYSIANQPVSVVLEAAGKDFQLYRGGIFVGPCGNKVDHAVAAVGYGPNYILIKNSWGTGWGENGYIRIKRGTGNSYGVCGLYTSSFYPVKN

For the substance “Fasciola hepatica cystatin-like stefin 2 (FhCyLS-2), recombinant (natural protein)”, in test [1], the IC50 of inhibition of protease activity (kinetic assay, 130 μM H-Gly-Arg-AMC, 0.4 nM cathepsin C, 100 mM Na acetate pH 5.5 with 50 mM NaCl, 37 °C, 15 min preincubation) was 66 nM. Besides, the IC50 of inhibition of protease activity (kinetic assay, 100 μM H-Arg-AMC, 1.9 nM cathepsin H, 50 mM MES pH 6.5, 37 °C, 15 min preincubation) in [2] stood at 2.5 nM. The IC50 of inhibition of protease activity (kinetic assay, 100 μM Z-Phe-Arg-AMC, 0.5 nM papain, 100 mM Na acetate pH 5.5, 37 °C, 15 min preincubation) in [3] came to 1.1 nM. Also, the IC50 of inhibition of protease activity (kinetic assay, 53 μM Z-Phe-Arg-AMC, 0.2 nM cathepsin B, 100 mM Na acetate pH 5.5, 37 °C, 15 min preincubation) with Cathepsin B (human) came out at 2.1 nM. In addition, the IC50 of inhibition of protease activity (kinetic assay, 27 μM Z-Phe-Arg-AMC, 1.2 nM cathepsin F, 100 mM Na acetate pH 5.5, 37 °C, 15 min preincubation) with Cathepsin F (human) was 49 nM. In addition, in the test with Cathepsin S (human), the IC50 of inhibition of protease activity (kinetic assay, 17 μM Z-Val-Val-Arg-AMC, 0.1 nM cathepsin S, 50 mM MES pH 6.5, 37 °C, 15 min preincubation) was determined as 1.1 nM. Moreover, the IC50 of inhibition of protease activity (kinetic assay, 87 μM Abz-Phe-Arg-Phe(NO2)-OH, 1.2 nM cathepsin X, 100 mM Na acetate pH 5.0, 37 °C, 15 min preincubation) with Cathepsin X (human) amounted to 8400 nM. The substance further displayed an IC50 of inhibition of protease activity (kinetic assay, 20 μM Z-Phe-Arg-AMC, 2 nM FhCL1, 50 mM MES pH 5.5, 37 °C, 15 min preincubation) in test [4] of 2.5 nM. Moreover, in [5], the IC50 of inhibition of protease activity (kinetic assay, 20 μM Z-Phe-Arg-AMC, 5 nM FhCL2, 50 mM MES pH 6.0, 37 °C, 15 min preincubation) was found to be 10 nM. This substance returned an IC50 of inhibition of protease activity (kinetic assay, 20 μM Z-Gly-Pro-Arg-AMC, 6 nM FhCL3, 50 mM MES pH 5.5, 37 °C, 15 min preincubation) in [6] of 18 nM. This substance also had an IC50 of inhibition of protease activity (kinetic assay, 4.3 μM Z-Phe-Arg-AMC, 0.2 nM cathepsin K, 100 mM Na acetate pH 5.5, 37 °C, 15 min preincubation) in test [7] of 8.6 nM. The same substance came in with an IC50 of inhibition of protease activity (kinetic assay, 2.5 μM Z-Phe-Arg-AMC, 0.2 nM cathepsin L, 100 mM Na acetate pH 5.5, 37 °C, 15 min preincubation) in test [8] of 0.92 nM. This substance had an IC50 of inhibition of protease activity (kinetic assay, 3.6 μM Z-Phe-Arg-AMC, 0.1 nM cathepsin V, 100 mM Na acetate pH 5.5, 37 °C, 15 min preincubation) in [9] of 5.9 nM.

For the origin of these results see publication PMC9986714.
